Source: patent publication US20120202233

Target: myc-CRAF (wild type)

B1: FLAG-KSR (wild-type KSR1) (protein)
chain: MDRAALRAAAMGEKKEGGGGGAAADGGAGAAVSRALQQCGQLQKLIDISIGSLRGLRTKCSVSNDLTQQEIRTLEAKLVKYICKQQQSKLSVTPSDRTAELNSYPRFSDWLYIFNVRPEVVQEIPQELTLDALLEMDEAKAKEMLRRWGASTEECSRLQQALTCLRKVTGLGGEHKMDSGWSSTDARDSSLGPPMDMLSSLGRAGASTQGPRSISVSALPASDSPVPGLSEGLSDSCIPLHTSGRLTPRALHSFITPPTTPQLRRHAKLKPPRTPPPPSRKVFQLLPSFPTLTRSKSHESQLGNRIDDVTPMKFELPHGSPQLVRRDIGLSVTHRFSTKSWLSQVCNVCQKSMIFGVKCKHCRLKCHNKCTKEAPACRITFLPLARLRRTESVPSDINNPVDRAAEPHFGTLPKALTKKEHPPAMNLDSSSNPSSTTSSTPSSPAPFLTSSNPSSATTPPNPSPGQRDSRFSFPDISACSQAAPLSSTADSTRLDDQPKTDVLGVHEAEAEEPEAGKSEAEDDEEDEVDDLPSSRRPWRGPISRKASQTSVYLQEWDIPFEQVELGEPIGQGRWGRVHRGRWHGEVAIRLLEMDGHNQDHLKLFKKEVMNYRQTRHENVVLFMGACMNPPHLAIITSFCKGRTLHSFVRDPKTSLDINKTRQIAQEIIKGMGYLHAKGIVHKDLKSKNVFYDNGKVVITDFGLFGISGVVREERRENQLKLSHDWLCYLAPEIVREMIPGRDEDQLPFSKAADVYAFGTVWYELQARDWPFKHQPAEALIWQIGSGEGVRRVLASVSLGKEVGEILSACWAFDLQERPSFSLLMDMLERLPKLNRRLSHPGHFWKSADINSSKVMPRFERFGLGTLESGNPKM
in vitro kinase activity towards purified MEK in KSR immunoprecipitates, phospho-MEK antibody (FIG. 1G): Treatment of cells with PLX4720 induced kinase activity towards MEK in the KSR immunoprecipitates and only occurred when KSR and CRAF were co-expressed together
